The record followed here is PMC4510971.

Assay in all cases: ITC; 0.450 mM UBN1 injected into a cell with 30 μM H3/H4, 22 °C; 20 mM HEPES pH 7.5, 750 mM NaCl, 1 mM TCEP
The target of test [1] is Asf1(1–169)/H3.3(60–135)/H4(20–102) (S. cerevisiae | X. laevis) (UniProt P32447).
Test [2] deals with H3.3(G90M)/H4 (human | X. laevis) (UniProt P62799).
Test [3] concerns the target H3.3(SAVM)/H4 (human | X. laevis) (UniProt P84243).

Sequence of UBN1(122–148) peptide (Q9NPG3 122-148): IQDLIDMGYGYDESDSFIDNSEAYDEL

In turn, “UBN1(122–148) peptide (from UniProt Q9NPG3 122-148)” yielded a dissociation constant Kd in test [1] of 110 µM. Also, the fold decrease in binding relative to H3.3 WT in test [2] and in test [3] was 3 fold in each case.
